Test [1] deals with T1, human CCL17 (human, UniProt Q92583 24-94).
T1 construct: Biotinylated in the Fab ELISAs; also called huCCL17; Bt-huCCL17
T1 sequence: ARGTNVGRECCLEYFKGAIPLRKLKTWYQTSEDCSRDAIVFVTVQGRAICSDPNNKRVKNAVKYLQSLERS
As to the kind of experiment: solution equilibrium affinity (MSD-SEA), TBST, 48 h at 4 °C. The protocol: (§1) Equal volumes of the anti-hCCL17 mAbs at 40 pM or 200 pM were added to each chemokine dilution to obtain mixtures containing the serial dilution of chemokines starting at a final concentration of […] and a constant concentration (20 pM or 100 pM) of anti-CCL17 antibody. The mixtures were prepared in duplicate and incubated at 4° C. for 48 hours to reach equilibrium. The free antibody was detected using a SECTOR Imager 6000 (Meso Scale Discovery) instrument. The resulting binding curves were fitted to obtain the dissociation equilibrium constant (KD) using the GraphPad Prism software (v 5.01) using a 1:1 binding model to perform nonlinear least-square regression analysis of the data.

For test [2], the target named is T1, human CCL17. As to the kind of experiment: cell-based or functional assay.
The target in test [3] is T2, cyno CCL17 (Macaca fascicularis (cyno), UniProt Q8HYP9 24-94 (rhesus entry)).
T2 sequence: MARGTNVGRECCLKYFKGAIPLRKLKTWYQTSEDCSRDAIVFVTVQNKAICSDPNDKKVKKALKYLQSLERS
As to the kind of experiment: cell-based or functional assay.

The target in test [4] is T2, cyno CCL17. As to the kind of experiment: solution equilibrium affinity (MSD-SEA), TBST, 48 h at 4 °C. The protocol:
as §1

Test [5] concerns the target T1, human CCL17. As to the kind of experiment: MSD-SEA; affinity for human CCL17 against that for cyno CCL17. The protocol: as §1
For test [6], the target named is T1, human CCL17. As to the kind of experiment: not stated in the legend (affinities by MSD-SEA in Examples 3 and 4).
Test [7] addresses T1, human CCL17. As to the kind of experiment: solution equilibrium affinity (MSD-SEA), IgG1. As for the experimental part:
as §1

Test [8] deals with T2, cyno CCL17. As to the kind of experiment: solution equilibrium affinity (MSD-SEA), IgG1. As for the experimental part:
as §1

B1: C17F24 (parent) (antibody, V domains shown)
VH: EVQLVQSGAEVKKPGESLKISCKGSGYSFTSYWIGWVRQMPGKGLEWMGIIDPSDSDTRYSPSFQGQVTISADKSISTAYLQWSSLKASDTAMYYCARVGPADVWDSFDYWGQGTLVTVSS
VL: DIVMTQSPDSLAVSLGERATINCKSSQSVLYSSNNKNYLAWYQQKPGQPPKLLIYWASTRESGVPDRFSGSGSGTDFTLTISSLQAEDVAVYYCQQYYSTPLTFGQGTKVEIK
For the molecule B1, the Kd (commonly the equilibrium constant for the complex coming apart) with human CCL17 [1] turned out to be 1 nM.

B2: C17B239 (antibody, V domains shown)
VH: EVQLVQSGAEVKKPGESLKISCKGSGYSFTSYWIGWVRQMPGKGLEWMGIIDPSDSDTRYSPSFQGQVTISADKSISTAYLQWSSLKASDTAMYYCARVGPADVWDSFDYWGQGTLVTVSS
VL: DIVMTQSPDSLAVSLGERATINCKSSQSVLSSFTNTNTLAWYQQKPGQPPKLLIYHASTRESGVPDRFSGSGSGTDFTLTISSLQAEDVAVYYCQQYLIYPSTFGQGTKVEIK
notes: Full IgG1, kappa
With B2, in the test with human CCL17 [2], the “IC50 (nM), calcium flux assay in CCRF-CEM cells, 10 ng/ml human CCL17” value came to 0.427 nM. Also, in the test with cyno CCL17 [3], the “IC50 (nM), calcium flux assay in CCRF-CEM cells, 5 ng/ml cyno CCL17” value was 0.43 nM. Further, the Kd is 0.092 nM with human CCL17 [1], 0.63 nM with cyno CCL17 [4] and no more than 100 nM with human CCL17 [6]. The “Fold binding human/cyno CCL17” value with human CCL17 [5] stood at 6.8 fold.

B3: C17B235 (antibody, V domains shown)
VH: EVQLVQSGAEVKKPGESLKISCKGSGYSFTSYWIGWVRQMPGKGLEWMGIIDPSDSDTRYSPSFQGQVTISADKSISTAYLQWSSLKASDTAMYYCARVGPADVWDSFDYWGQGTLVTVSS
VL: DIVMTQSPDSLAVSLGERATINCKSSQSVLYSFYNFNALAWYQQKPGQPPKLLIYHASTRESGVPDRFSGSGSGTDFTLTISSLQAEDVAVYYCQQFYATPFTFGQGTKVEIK
notes: Full IgG1, kappa
For B3, in the test with human CCL17 [2], the “IC50 (nM), calcium flux assay in CCRF-CEM cells, 10 ng/ml human CCL17” value turned out to be 0.558 nM. For the same molecule, the “IC50 (nM), calcium flux assay in CCRF-CEM cells, 5 ng/ml cyno CCL17” value with cyno CCL17 [3] was found to be 0.919 nM. The Kd in the test with human CCL17 [1] is 0.072 nM; in the test with cyno CCL17 [4], 9.5 nM; in the test with human CCL17 [6], no more than 100 nM. The “Fold binding human/cyno CCL17” value in the test with human CCL17 [5] was found to be 132 fold.

B4: C17B243 (antibody, V domains shown)
VH: EVQLVQSGAEVKKPGESLKISCKGSGYSFTSYWIGWVRQMPGKGLEWMGIIDPSDSDTRYSPSFQGQVTISADKSISTAYLQWSSLKASDTAMYYCARVGPADVWDSFDYWGQGTLVTVSS
VL: DIVMTQSPDSLAVSLGERATINCKSSQSVLNSFDNKNDLAWYQQKPGQPPKLLIYEASTRESGVPDRFSGSGSGTDFTLTISSLQAEDVAVYYCQQHWQTPLTFGQGTKVEIK
notes: Full IgG1, kappa
For the molecule B4, in the test with human CCL17 [2], the “IC50 (nM), calcium flux assay in CCRF-CEM cells, 10 ng/ml human CCL17” value stood at 0.231 nM. The “IC50 (nM), calcium flux assay in CCRF-CEM cells, 5 ng/ml cyno CCL17” value with cyno CCL17 [3] turned out to be 0.31 nM. Further, the Kd was 0.028 nM in the test with human CCL17 [1], 0.677 nM with cyno CCL17 [4] and no more than 100 nM in the test with human CCL17 [6]. The “Fold binding human/cyno CCL17” value with human CCL17 [5] turned out to be 24.2 fold.

B5: C17B237 (antibody, V domains shown)
VH: EVQLVQSGAEVKKPGESLKISCKGSGYSFTSYWIGWVRQMPGKGLEWMGIIDPSDSDTRYSPSFQGQVTISADKSISTAYLQWSSLKASDTAMYYCARVGPADVWDSFDYWGQGTLVTVSS
VL: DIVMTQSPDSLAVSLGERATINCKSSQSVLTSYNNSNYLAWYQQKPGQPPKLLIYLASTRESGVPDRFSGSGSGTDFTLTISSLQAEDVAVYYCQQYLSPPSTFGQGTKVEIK
notes: Full IgG1, kappa
Regarding B5, the “IC50 (nM), calcium flux assay in CCRF-CEM cells, 10 ng/ml human CCL17” value with human CCL17 [2] was 0.882 nM. Further, the “IC50 (nM), calcium flux assay in CCRF-CEM cells, 5 ng/ml cyno CCL17” value with cyno CCL17 [3] was 0.549 nM. The Kd was 0.657 nM with human CCL17 [1] and 3.07 nM in the test with cyno CCL17 [4]. Also, the “Fold binding human/cyno CCL17” value with human CCL17 [5] came to 4.7 fold.

B6: C17B244 (antibody, V domains shown)
VH: EVQLVQSGAEVKKPGESLKISCKGSGYSFTSYWIGWVRQMPGKGLEWMGIIDPSDSDTRYSPSFQGQVTISADKSISTAYLQWSSLKASDTAMYYCARVGPADVWDSFDYWGQGTLVTVSS
VL: DIVMTQSPDSLAVSLGERATINCKSSQSVLSSITNVNDLAWYQQKPGQPPKLLIYTASTRESGVPDRFSGSGSGTDFTLTISSLQAEDVAVYYCQQYYHDPFTFGQGTKVEIK
notes: Full IgG1, kappa
With B6, the “IC50 (nM), calcium flux assay in CCRF-CEM cells, 5 ng/ml cyno CCL17” value with cyno CCL17 [3] turned out to be 0.311 nM. Moreover, the Kd in the test with human CCL17 [1] was 0.033 nM; in the test with cyno CCL17 [4], 0.565 nM; in the test with human CCL17 [6] it was no more than 100 nM. Also, in the test with human CCL17 [5], the “Fold binding human/cyno CCL17” value came out at 17.1 fold.

B7: C17B257 (antibody, IgG1, V domains shown)
VH: EVQLVQSGAEVKKPGESLKISCKGSGYSFTSYWIGWVRQMPGKGLEWMGIIDPSDSDTRYSPSFQGQVTISADKSISTAYLQWSSLKASDTAMYYCARVGPADVWDSFDYWGQGTLVTVSS
VL: DIVMTQSPDSLAVSLGERATINCKSSQSVLLSFDNINKLAWYQQKPGQPPKLLIYAASTRESGVPDRFSGSGSGTDFTLTISSLQAEDVAVYYCQQFYSVPSTFGQGTKVEIK
notes: Expressed as IgG1; Light chain N50A (Kabat) variant of C17B234
As for B7, the Kd with human CCL17 [7] stood at 0.0001 nM; in the test with cyno CCL17 [8], 0.0656 nM. Further, the “Fold binding human/cyno CCL17” value in the test with human CCL17 [5] was 656 fold.

B8: C17B238 (antibody, V domains shown)
VH: EVQLVQSGAEVKKPGESLKISCKGSGYSFTSYWIGWVRQMPGKGLEWMGIIDPSDSDTRYSPSFQGQVTISADKSISTAYLQWSSLKASDTAMYYCARVGPADVWDSFDYWGQGTLVTVSS
VL: DIVMTQSPDSLAVSLGERATINCKSSQSVLISAFNQNPLAWYQQKPGQPPKLLIYDASTRESGVPDRFSGSGSGTDFTLTISSLQAEDVAVYYCQQYQFIPFTFGQGTKVEIK
notes: Full IgG1, kappa
B8: the “IC50 (nM), calcium flux assay in CCRF-CEM cells, 10 ng/ml human CCL17” value with human CCL17 [2] was 0.387 nM. The “IC50 (nM), calcium flux assay in CCRF-CEM cells, 5 ng/ml cyno CCL17” value with cyno CCL17 [3] amounted to 0.348 nM. For the same molecule, the Kd with human CCL17 [1] amounted to 0.115 nM; in the test with cyno CCL17 [4] it was 1.46 nM. Also, in the test with human CCL17 [5], the “Fold binding human/cyno CCL17” value worked out at 12.7 fold.

B9: C17B240 (antibody, V domains shown)
VH: EVQLVQSGAEVKKPGESLKISCKGSGYSFTSYWIGWVRQMPGKGLEWMGIIDPSDSDTRYSPSFQGQVTISADKSISTAYLQWSSLKASDTAMYYCARVGPADVWDSFDYWGQGTLVTVSS
VL: DIVMTQSPDSLAVSLGERATINCKSSQSVLYSHVNYNALAWYQQKPGQPPKLLIYNASTRESGVPDRFSGSGSGTDFTLTISSLQAEDVAVYYCQQYYTLPATFGQGTKVEIK
notes: Full IgG1, kappa
As to B9, the “IC50 (nM), calcium flux assay in CCRF-CEM cells, 10 ng/ml human CCL17” value with human CCL17 [2] was 0.405 nM. Moreover, in the test with cyno CCL17 [3], the “IC50 (nM), calcium flux assay in CCRF-CEM cells, 5 ng/ml cyno CCL17” value amounted to 0.308 nM. Besides, the Kd is 0.083 nM in the test with human CCL17 [1], 4.6 nM with cyno CCL17 [4] and no more than 100 nM in the test with human CCL17 [6]. Also, the “Fold binding human/cyno CCL17” value in the test with human CCL17 [5] stood at 55.4 fold.

B10: C17B242 (antibody, V domains shown)
VH: EVQLVQSGAEVKKPGESLKISCKGSGYSFTSYWIGWVRQMPGKGLEWMGIIDPSDSDTRYSPSFQGQVTISADKSISTAYLQWSSLKASDTAMYYCARVGPADVWDSFDYWGQGTLVTVSS
VL: DIVMTQSPDSLAVSLGERATINCKSSQSVLFSHDNLNTLAWYQQKPGQPPKLLIYHASTRESGVPDRFSGSGSGTDFTLTISSLQAEDVAVYYCQQYYAVPQTFGQGTKVEIK
notes: Full IgG1, kappa
As to B10, the “IC50 (nM), calcium flux assay in CCRF-CEM cells, 10 ng/ml human CCL17” value with human CCL17 [2] turned out to be 0.483 nM. Also, the “IC50 (nM), calcium flux assay in CCRF-CEM cells, 5 ng/ml cyno CCL17” value with cyno CCL17 [3] came out at 0.34 nM. Moreover, the Kd with human CCL17 [1] amounted to 0.167 nM; with cyno CCL17 [4], 0.384 nM. In addition, in the test with human CCL17 [5], the “Fold binding human/cyno CCL17” value stood at 2.3 fold.

B11: C17B241 (antibody, V domains shown)
VH: EVQLVQSGAEVKKPGESLKISCKGSGYSFTSYWIGWVRQMPGKGLEWMGIIDPSDSDTRYSPSFQGQVTISADKSISTAYLQWSSLKASDTAMYYCARVGPADVWDSFDYWGQGTLVTVSS
VL: DIVMTQSPDSLAVSLGERATINCKSSQSVLNSFTNNNALAWYQQKPGQPPKLLIYEASTRESGVPDRFSGSGSGTDFTLTISSLQAEDVAVYYCQQTNSIPLTFGQGTKVEIK
notes: Full IgG1, kappa
B11: the “IC50 (nM), calcium flux assay in CCRF-CEM cells, 10 ng/ml human CCL17” value with human CCL17 [2] was 0.456 nM. In the test with cyno CCL17 [3], the “IC50 (nM), calcium flux assay in CCRF-CEM cells, 5 ng/ml cyno CCL17” value amounted to 0.339 nM. For the same molecule, the Kd with human CCL17 [1] is 0.05 nM; with cyno CCL17 [4], 0.583 nM; in the test with human CCL17 [6] it was no more than 100 nM. The “Fold binding human/cyno CCL17” value in the test with human CCL17 [5] worked out at 11.7 fold.

The values are drawn from patent US20220348647A1 (published 2022).
